Assay results as given in PMC11542851 (PLOS Pathogens, 2024).
Like-named read-outs stand apart in the source and are kept apart here.

Columns and labels:
[1] = molecular target: T1, SARS-CoV-2 RBD subunit (recombinant) (SARS-CoV-2 Wuhan-Hu-1, UniProt P0DTC2)
[2] = molecular target: T1, SARS-CoV-2 RBD subunit (recombinant); experiment: ELISA; conditions: both partners purified

B1: C68.102 (antibody, V domains shown)
VH: QLQLQESGPGLLKPSETLSLTCTVSGGSISSSRYYWGWIRQPPGKGLEWIGSVYYSGTTYYNPSLKSRVTISVDASKNQFSLRLSSVSAADTAVYYCARRLGAIWDWGQGTRVTVSS
VL: DIQLTQSPSSLSASVGDRVTITCRASQGISNSLAWYQQKPGKAPKLLLYAASTLESGVPSRFSGSGSGTDYTLTISSLQPEDFAAYYCQQYYSTPTFGQGTKVEIK
B1: binds [1].

B2: C68.100 (antibody, V domains shown)
VH: EVQLVQSGAEVKKPGESLRISCKGSGYIFNSYWIIWVRQMPGKGLEWMGRIDPSDSYTNYSPSFQGHVTMSVDKSINTAYLQWSSLKASDTAMYYCARVRFGELSWDTFDYWGQGTLVTVSS
VL: DIQVTQSPSSLSASVGDRVTITCRASQSMSYYLNWYQQKPGKAPKLLISAASSLQSGVPSRFSGSGSGTDFTLTISSLQPEDFATYYCQQSYSTPYTFGQGTKLEIK
B2: binds [1].

B3: C68.225 (antibody, V domains shown)
VH: EVQLVQSGAEVKKPGESLRISCKGSGYSFTNYWISWVRQMPGKGLEWMGRIDPSDSYTDYSPSFQGHVTISTDKSISTAYLQWSSLKASDTAMYYCARPRGIAAVGTGYNWLDPWGQGTLVIVSS
VL: DIQMTQSPSTLSASVGDRVTITCRASQSINSWLAWYQQKPGKAPKLLIYDASSLESGVPSRFSGSGSGTEFTLTISSLQPADFATYYCQQYNALYTFGQGTKLEIK
B3: binds [1].

B4: C68.136 (antibody, V domains shown)
VH: EVQLLESGGGLVQPGGSLRLSCAASGFTFSIYAMSWVRQAPGKGLEWVSGISGSGGSTYYADSVKGRFTLSRDNSKNTLFLQMNSLRAEDTAVYYCAKGEGSVVVVSAGVWGKGTTVTVSS
VL: DIQLTQSPSSLSASVGDRITITCQASQDISKSLNWYQQKPGKAPKVLIYDASNLETGVPSRFSGSGSGTDFTFTISSLQPEDIATYYCQQYDNLRLTFGGGTKVEIK
B4: binds [1].

B5: C68.180 (antibody, V domains shown)
VH: EVQLVESGGGLVKPGGSLRLSCAASGFTFIDYHMSWIRQAPGKGLEWVSYITTTSSYANYADSVKGRFTISRDNAKNSLFLQMNSLRADDTAVYYCARDRGYDLRFDYWGQGTLVTVSS
VL: DIQMTQSPSSLSASVGDRVTITCQASQGISNYLNWYQKKPGKAPKLLIYDASNLKTGVPSRFSGSGSGTDFTFTISSLQPEDIATYYCQQYDSLPLTFGGGTKVEIK
B5: binds [1].

B6: C68.256 (antibody, V domains shown)
VH: QVQLQESGPGLVKPSETLSLTCSVSGGSISSSSSYWGWIRQPPGKGLEWIGNIDYSGSTYYNPSLKSRVTISVDTSKNQFSLKLSSVTAADTAVYFCARGADYGPYFDYWGQGALLTVSS
VL: QSALTQPASVSGSPGQSITISCTGTSSDVGSYNLVSWYQHHPGKAPKLMIYEVSKRPSGVSNRLSGSKSGNTASLTISGLQAEDEADYYCSSYAGSSTFVVFGGGTKLTVL
B6: binds [1].

B7: C68.175 (antibody, V domains shown)
VH: EVQLLESGGGLVQPGGSLRLSCAASGFTFSSYAMSWVRQAPGKGLEWVSGISGSGGSTYYADSVKGRFTISRDNSKNTLHLQMNSLRAEDTAVYYCAKGSRWNPDYFDYWGQGTLVTVSS
VL: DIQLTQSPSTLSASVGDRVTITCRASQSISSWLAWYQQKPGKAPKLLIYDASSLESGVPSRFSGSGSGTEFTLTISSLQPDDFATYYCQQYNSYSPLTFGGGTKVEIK
B7: binds [2].

B8: C68.285 (antibody, V domains shown)
VH: QVQLVQSGAEVKKPGASVKVSCKASGYTFSNYFMHWVRQAPGQGLEWMGIINPSGVSTSYAQKFQGRITMTRDTSTSTVYMELSSLRSEDTAVYYCAFEMGAAPFDYWGQGTLVTVSS
VL: DIQLTQSPSFLSASVGDRVTITCRASQGISSYLAWYQQKPGKAPKVLIYDASTLQSGVPSRFSGSGSGTEFTLTISSLQPEDFATYYCQQLNTYPQGLTFGGGTKVEIK
B8: binds [1].

B9: C68.121 (antibody, V domains shown)
VH: EVQLVESGGGLVKPGGSLRLSCAASGFTFSDYYMTWIRQAPGKGLEWVSKITNSNSYTHYADSVKGRFTISRDNAKNSLFLHMNSLRAEDTAVYYCARAIWIGYPDDYYMDVWGKGTTVTVSS
VL: SYELTQPPSVSVSPGQTARITCSGDTLPNQYVYWYQQKPGQAPVLLIYKDTERPSGIPERVSGSTSGTTVTLTISGVQAEDEADYYCQSADSSGTSFGGGTKLTVL
B9: binds [2].

B10: C68.281 (antibody, V domains shown)
VH: QVQLVQSGAEVRKPGASVKVSCKASGYNFTSYYMHWVRQAPGQGLEWMGIINPSDGSASYAQKFQGRVTMTRDSSTSTVYMELSSLRSDDTAVYFCARGGRILQWFPYFFDYWGQGTLVTVSS
VL: EIVLTQSPGTLSLSPGERATLSCRASQSVSIRYLAWYQQKPGQAPRLLIYGASSRATGIPDRFSGSGSGTDFTLTISRLEPEDFAVYYCQQYETFGQGTKVEIK
B10: binds [1].

B11: C68.233 (antibody, V domains shown)
VH: QVQLVQSGPEVKKPGTSVKVSCKASGFTFTTSAVQWVRQARGLRLEWIGWIVVGSGNTNYGQKFQERVTITRDMSTSTAYMELSSLRSEDTAVYYCAAPHCNRTNCHDGFDIWGQGTMVTVS
VL: EIVLTQSPGTLPLSPGERATLSCRASQSVRSSYLAWYQQKPGQAPRLLIYGASSRATGIPDRFSGSGSGTDFILTISRLEPEDFAVYSCQQYGSSPWTFGQGTKVEIK
B11: binds [1].

B12: C68.83 (antibody, V domains shown)
VH: EVQLVESGGGVVQPGRSLRLSCAASGFIFSSYGMHWVRQAPGKGLEWVAVIWYDGSNKYYADSVKGRFTISRDNSKNTLYLQMNSLRAEDTAVYYCARDDPEVGCSGGSCYYYYDMDVWGQGTTVTVSS
VL: SYELTQPPSVSVSPGQTARITCSGDALPKQHAHWYQQKPGQAPVLVIYKDIERPSGIPERFSGSSSGTTVTLTISGVQAEDEADYYCQSADSSVTYVVFGGGTKLTVL
B12: binds [2].

B13: C68.304 (antibody, V domains shown)
VH: EVQLVESGGGVVQPGRSLRLSCAASGFIFSNYDMHWVRQAPGKGLEWVAVIWYDGSNKYYADSVKGRFTISRDNSKNTLYLQMNSLRADDTAMYYCSRHDSGTYYYFDSWGQGTLVTVSS
VL: LTVVTQEPSFSVSPGGTVTLTCGLSSGSVSTSYYPSWYQQTPGQPPRTLIYTTITRSSGVPDRFSGSILGNKAALTITGAQGDDESDYYCVLYMGSGNWVFGGGTKLTVL
B13: binds [1].

B14: C68.286 (antibody, V domains shown)
VH: QSTLKESGPALVKPTQTLTLTCTFSGFSLSTSGMCVSWIRQPPGKALEWLARIDWDDDKYYSTSLETRLTISKDTSKNQVVLTMTNMDPVDTATYYCARMTVAGPSLDYWGQGTLVTVSS
VL: not shown
B14: binds [1].

B15: C68.279 (antibody, V domains shown)
VH: EVQLVQSGAEVKKPGESLKISCKGSGYSFNYYWIGWVRQMPGKGLEWMGIIYPGDSDARYSPSFQGQVTISADKSISTAYLQWSSLKASDTAMYYCGRLVGYSHDLYFDYWGQGTLVTVSS
VL: not shown
B15: binds [1].

B16: C68.170 (antibody, V domains shown)
VH: QVQLQESGPGLVKPSQTLSLTCTVSGGSISSGGYYWSWIRQHPKKDLEWIGYIYNSGSTYYNPSLKSRVTISIDTTKNQFSLKLSSVTAADTALYYCARSVGAAAQWGGEFDYWGQGTLVTVSS
VL: DIQLTQSPSSLSASVGDRVTITCQASQDISNYLNWYQQKPGKAPKLLIYDVFILQAGVPSRFSGSGSGTDFTFTISSLQPEDIATYYCQQYNHLITFGGGTKVEIK
B16: binds [1].

B17: C68.138 (antibody, V domains shown)
VH: EVQLVQSGAEVKKPGESLRISCKGSGYSSTNYWISWVRQMPGKGLEWMGRIDLSDSYTNYSPSFQGHVTISADKSISTAYLQWSSLKASDTAIYYCARLLTTVTTDWFDPWGQGTLVTVSS
VL: DIQMTQSPSSLSASVGDRVTITCRASQSISNYLNWYQQKPGKAPKLLIYTASSLQSGVPSRFSGSGSGTDFTLSISSLKPEDFATYFCQQSYNAPPYTFGQGTKLQIK
B17: binds [1].

B18: C68.123 (antibody, V domains shown)
VH: EVQLVESGGGLVQPGGSLRLSCSASGFTFSSYTLHWVRQAPGKGLEYVSSISSNGGSTYYADSVKGRFTISRDNSKNTLFLQMSSLRAEDTAIYYCVKGVWLHDFWSGYPSRWGQGTPVTVSS
VL: DIQLTQSPSTLSASVGDRVTITCRASQSISNWLAWYQQKPGKAPNLLIYDASSLESGVPSRFSGSGSGTEFTLTISSLQPDDFATYYCQQYNSYPWTFGQGSKVDIK
B18: binds [1].

B19: C68.194 (antibody, V domains shown)
VH: QVQLVQSGAELKRPGASVKVSCKAPGHTFTIYAMHWVRQAPGQRPEWMGWINAGNGDTKYSQKFQGRVTITRDTSASTAYMELSSLRSEDTAVYYCATSGSLRFQVDYFDHWGQGTLVTVSS
VL: DIQLTQSPSTLSASVGDRVTITCRASQSISSWLAWYRQKPGKAPKLLIYDASNLESGVPSRFSGSGSGTEFTLTISSLQPDDFATYYCQQYNSYPWTFGQGTKVEIK
B19: binds [1].

B20: C68.263 (antibody, V domains shown)
VH: EVQLVESGGGVVQPGRSLRLSCAASGFTFSTYAMHWVRQAPGKGLEWVAVISFDGSNTYYADSVKGRFTISRDNSKNTLYLQMNSLRAEDTAVYYCAKDSYYSDRSDYYWRSYGYFGLWGQGTLVTVSS
VL: DIQLTQSPSTLSASVGDRVTITCRASQSISSWLAWYQQKPGKAPKLLIYDASSLESGVPSRFSGSGSGTEFTLTISSLQPDDLATYYCQQYRSYSGTFGQGTKVEIK
B20: binds [1].

B21: C68.236 (antibody, V domains shown)
VH: QVQVVQSGAELKKPGASVKVSCKAPGHTFTIYAMHWVRQAPGQRLEWMGWINAGNGDTKYSQKFQGRVTITRDTSASTAYMELSSLRSEDTAVYYCASSGSRRFQVDYFDYWGQGTLVTVSS
VL: DIQLTQSPSTLSASVGDRVTITCRASQSIRSWLAWYQQKPGKAPKLLIYDASSLESGVPSRFSGSGSGTEFTLTISSLQPDDFATYYCQQYNSYPWTFGQGTKVEIK
B21: binds [1].

B22: C68.220 (antibody, V domains shown)
VH: QVQLLQSGAEVKKPGASVKVSCKASGYTFTIYAMHLVRQAPGQRLEWMGWINTGNGDTKYSQKFQGRVTITRDTSASTAYMELSSLRSEDTAVYYCAISGSRHFQVDYFDYWGQGTLVTVSS
VL: DIQMTQSPSTLSASVGDRVTITCRASQSISRWLAWYQQKPGKAPKLLIYDASSFESGVPSRFSGRGSGTEFTLTISSLQPDDFATYYCQQYKSYPWTFGQGTKVEIK
B22: binds [1].
